How the values were obtained:
[1] = target: mannose 6-phosphate (M6P) receptor on cultured human fibroblasts (CCD-1076SK) (human) (UniProt P11717); assay: cell-based or functional assay
[2] = target: His-tagged-hMPR9 (domain 9 of human mannose-6-phosphate receptor with C-terminal His-tag) (human) (UniProt P11717); assay: SPR (Biacore T100), His-tagged-hMPR9 on NTA chip, rhI2S as analyte
[3] = target: mannose 6-phosphate (M6P) receptor on cultured human fibroblasts (CCD-1076SK) (human), P11717; assay: cell-based or functional assay
Chain of mannose 6-phosphate (M6P) receptor on cultured human fibroblasts (CCD-1076SK) (human), P11717 (P11717 41-2491): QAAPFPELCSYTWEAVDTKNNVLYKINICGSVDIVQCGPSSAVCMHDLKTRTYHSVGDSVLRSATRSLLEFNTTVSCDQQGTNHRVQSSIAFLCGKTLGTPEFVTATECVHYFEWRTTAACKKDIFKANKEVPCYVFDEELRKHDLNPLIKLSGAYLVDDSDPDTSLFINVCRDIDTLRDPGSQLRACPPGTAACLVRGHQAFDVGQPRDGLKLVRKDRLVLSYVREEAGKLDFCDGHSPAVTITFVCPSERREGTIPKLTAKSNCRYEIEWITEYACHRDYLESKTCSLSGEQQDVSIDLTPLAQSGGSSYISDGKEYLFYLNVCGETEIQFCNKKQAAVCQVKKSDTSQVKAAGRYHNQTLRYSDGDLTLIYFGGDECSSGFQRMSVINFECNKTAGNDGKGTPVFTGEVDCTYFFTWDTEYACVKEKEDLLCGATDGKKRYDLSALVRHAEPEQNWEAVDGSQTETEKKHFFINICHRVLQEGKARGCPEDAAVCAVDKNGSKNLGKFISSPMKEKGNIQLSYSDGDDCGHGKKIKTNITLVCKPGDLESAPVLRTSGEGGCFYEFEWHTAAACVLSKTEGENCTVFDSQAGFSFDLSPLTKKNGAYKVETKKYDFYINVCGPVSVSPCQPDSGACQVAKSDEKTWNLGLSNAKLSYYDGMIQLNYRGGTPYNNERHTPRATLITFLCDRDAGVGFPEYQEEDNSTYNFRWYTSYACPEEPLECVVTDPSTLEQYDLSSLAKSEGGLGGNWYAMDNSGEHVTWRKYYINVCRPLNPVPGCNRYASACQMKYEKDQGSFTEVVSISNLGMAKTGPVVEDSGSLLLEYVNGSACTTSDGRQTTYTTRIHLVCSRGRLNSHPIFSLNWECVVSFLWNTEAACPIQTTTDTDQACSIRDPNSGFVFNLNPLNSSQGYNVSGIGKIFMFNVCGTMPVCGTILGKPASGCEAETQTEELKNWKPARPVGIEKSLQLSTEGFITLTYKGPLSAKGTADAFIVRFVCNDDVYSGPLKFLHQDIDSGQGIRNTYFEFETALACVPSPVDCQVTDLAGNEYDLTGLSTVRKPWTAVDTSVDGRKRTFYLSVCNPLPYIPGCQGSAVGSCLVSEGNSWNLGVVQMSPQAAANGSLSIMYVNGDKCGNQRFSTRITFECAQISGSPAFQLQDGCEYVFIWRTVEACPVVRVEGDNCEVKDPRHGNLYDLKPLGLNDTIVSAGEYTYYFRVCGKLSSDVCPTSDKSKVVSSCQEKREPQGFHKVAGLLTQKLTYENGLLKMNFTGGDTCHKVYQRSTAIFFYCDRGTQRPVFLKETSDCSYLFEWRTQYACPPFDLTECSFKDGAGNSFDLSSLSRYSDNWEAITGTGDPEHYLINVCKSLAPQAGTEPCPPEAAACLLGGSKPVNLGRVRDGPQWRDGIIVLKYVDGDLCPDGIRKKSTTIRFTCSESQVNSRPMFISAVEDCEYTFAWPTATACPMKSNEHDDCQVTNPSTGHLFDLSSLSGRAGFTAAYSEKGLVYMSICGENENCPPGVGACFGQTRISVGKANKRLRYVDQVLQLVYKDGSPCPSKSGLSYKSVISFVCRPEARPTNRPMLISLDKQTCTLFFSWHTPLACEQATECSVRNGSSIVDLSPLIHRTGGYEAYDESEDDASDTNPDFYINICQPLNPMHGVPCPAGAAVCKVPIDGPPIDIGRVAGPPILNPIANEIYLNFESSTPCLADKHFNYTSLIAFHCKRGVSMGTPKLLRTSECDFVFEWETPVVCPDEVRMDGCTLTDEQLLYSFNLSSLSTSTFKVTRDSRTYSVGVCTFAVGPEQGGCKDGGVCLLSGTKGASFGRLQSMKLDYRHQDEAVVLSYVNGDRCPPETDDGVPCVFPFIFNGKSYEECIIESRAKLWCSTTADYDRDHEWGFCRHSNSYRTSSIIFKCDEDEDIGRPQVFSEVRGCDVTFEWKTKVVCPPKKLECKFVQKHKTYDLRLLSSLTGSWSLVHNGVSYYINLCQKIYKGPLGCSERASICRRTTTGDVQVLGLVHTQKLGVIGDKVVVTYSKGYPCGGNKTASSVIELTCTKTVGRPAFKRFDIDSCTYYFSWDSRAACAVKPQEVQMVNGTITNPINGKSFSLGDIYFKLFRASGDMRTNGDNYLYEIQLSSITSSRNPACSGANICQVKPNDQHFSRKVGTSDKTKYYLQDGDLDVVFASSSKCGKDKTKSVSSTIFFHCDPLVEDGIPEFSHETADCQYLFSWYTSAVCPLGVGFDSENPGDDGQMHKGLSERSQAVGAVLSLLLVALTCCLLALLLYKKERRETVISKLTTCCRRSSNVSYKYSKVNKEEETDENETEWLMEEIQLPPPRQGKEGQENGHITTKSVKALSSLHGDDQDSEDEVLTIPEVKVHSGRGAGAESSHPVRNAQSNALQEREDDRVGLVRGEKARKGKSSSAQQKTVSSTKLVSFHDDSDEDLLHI

[4] = target: His-tagged-hMPR9 (domain 9 of human mannose-6-phosphate receptor with C-terminal His-tag) (human) (UniProt P11717); assay: SPR (Biacore T100), His-tagged-hMPR9 on NTA chip, rhI2S as analyte; average of lots 1-7
[5] = target: His-tagged-hMPR9 (domain 9 of human mannose-6-phosphate receptor with C-terminal His-tag) (human) (UniProt P11717); assay: SPR (Biacore T100), His-tagged-hMPR9 on NTA chip, rhI2S as analyte; low end of range over lots 1-7
[6] = target: His-tagged-hMPR9 (domain 9 of human mannose-6-phosphate receptor with C-terminal His-tag) (human) (UniProt P11717); assay: SPR (Biacore T100), His-tagged-hMPR9 on NTA chip, rhI2S as analyte; high end of range over lots 1-7

Molecule “commercially-available medicinal rhI2S (from UniProt P22304 26-550) (enzyme)” has an EC50 of cellular uptake (human fibroblasts, 18 hrs, rhI2S in lysate by ELISA) [1] of 1.46 µg/mL and a Kd [2] of 3.32 nM.

B1: recombinant human iduronate 2-sulfatase (rhI2S) of the present invention (Lot Nos. 1-7), P22304 26-550 (enzyme)
chain: SETQANSTTDALNVLLIIVDDLRPSLGCYGDKLVRSPNIDQLASHSLLFQNAFAQQAVCAPSRVSFLTGRRPDTTRLYDFNSYWRVHAGNFSTIPQYFKENGYVTMSVGKVFHPGISSNHTDDSPYSWSFPPYHPSSEKYENTKTCRGPDGELHANLLCPVDVLDVPEGTLPDKQSTEQAIQLLEKMKTSASPFFLAVGYHKPHIPFRYPKEFQKLYPLENITLAPDPEVPDGLPPVAYNPWMDIRQREDVQALNISVPYGPIPVDFQRKIRQSYFASVSYLDTQVGRLLSALDDLQLANSTIIAFTSDHGWALGEHGEWAKYSNFDVATHVPLIFYVPGRTASLPEAGEKLFPYLDPFDSASQLMEPGRQSMDLVELVSLFPTLAGLAGLQVPPRCPVPSFHVELCREGKNLLKHFRFRDLEEDPYLPGNPRELIAYSQYPRPSDIPQWNSDKPSLKDIKIMGYSIRTIDYRYTVWVGFNPDEFLANFSDIHAGELYFVDSDPLQDHNMYNDSQGGDLFQLLMP
modifications: here or on the partner: glycosylated; linked oligosaccharide chains containing mannose-6-phosphate residues, 3.74-5.38 mol/mol (average 4.37 mol/mol)
With B1 the EC50 of cellular uptake (human fibroblasts, 18 hrs, rhI2S in lysate by ELISA) [3] was 0.452 µg/mL.

B2: recombinant human iduronate 2-sulfatase (rhI2S) of the present invention (Lot Nos. 1-7) (enzyme)
chain: SETQANSTTDALNVLLIIVDDLRPSLGCYGDKLVRSPNIDQLASHSLLFQNAFAQQAVCAPSRVSFLTGRRPDTTRLYDFNSYWRVHAGNFSTIPQYFKENGYVTMSVGKVFHPGISSNHTDDSPYSWSFPPYHPSSEKYENTKTCRGPDGELHANLLCPVDVLDVPEGTLPDKQSTEQAIQLLEKMKTSASPFFLAVGYHKPHIPFRYPKEFQKLYPLENITLAPDPEVPDGLPPVAYNPWMDIRQREDVQALNISVPYGPIPVDFQRKIRQSYFASVSYLDTQVGRLLSALDDLQLANSTIIAFTSDHGWALGEHGEWAKYSNFDVATHVPLIFYVPGRTASLPEAGEKLFPYLDPFDSASQLMEPGRQSMDLVELVSLFPTLAGLAGLQVPPRCPVPSFHVELCREGKNLLKHFRFRDLEEDPYLPGNPRELIAYSQYPRPSDIPQWNSDKPSLKDIKIMGYSIRTIDYRYTVWVGFNPDEFLANFSDIHAGELYFVDSDPLQDHNMYNDSQGGDLFQLLMP
modifications: glycosylated; linked oligosaccharide chains containing mannose-6-phosphate residues, 3.74-5.38 mol/mol (average 4.37 mol/mol)
B2 gave a Kd [4] of 1.04 nM, a Kd [5] of 0.758 nM and a Kd [6] of 1.23 nM.
